# According to IntAct's records for PubMed 22536782:
# B1: GRB2-associated-binding protein 1 (Homo sapiens), Q13480 (parent)
# chain: MSGGEVVCSGWLRKSPPEKKLKRYAWKRRWFVLRSGRLTGDPDVLEYYKNDHAKKPIRIIDLNLCQQVDAGLTFNKKEFENSYIFDINTIDRIFYLVADSEEEMNKWVRCICDICGFNPTEEDPVKPPGSSLQAPADLPLAINTAPPSTQADSSSATLPPPYQLINVPPHLETLGIQEDPQDYLLLINCQSKKPEPTRTHADSAKSTSSETDCNDNVPSHKNPASSQSKHGMNGFFQQQMIYDSPPSRAPSASVDSSLYNLPRSYSHDVLPKVSPSSTEADGELYVFNTPSGTSSVETQMRHVSISYDIPPTPGNTYQIPRTFPEGTLGQTSKLDTIPDIPPPRPPKPHPAHDRSPVETCSIPRTASDTDSSYCIPTAGMSPSRSNTISTVDLNKLRKDASSQDCYDIPRAFPSDRSSSLEGFHNHFKVKNVLTVGSVSSEELDENYVPMNPNSPPRQHSSSFTEPIQEANYVPMTPGTFDFSSFGMQVPPPAHMGFRSSPKTPPRRPVPVADCEPPPVDRNLKPDRKVKPAPLEIKPLPEWEELQAPVRSPITRSFARDSSRFPMSPRPDSVHSTTSSSDSHDSEENYVPMNPNLSSEDPNLFGSNSLDGGSSPMIKPKGDKQVEYLDLDLDSGKSTPPRKQKSSGSGSSVADERVDYVVVDQQKTLALKSTREAWTDGRQSTESETPAKSVK
# Variants of: B1
# Conditions: with grb2_human GRB2, P62993
# grb2_human GRB2, P62993, sequence (P62993 whole entry, looked up): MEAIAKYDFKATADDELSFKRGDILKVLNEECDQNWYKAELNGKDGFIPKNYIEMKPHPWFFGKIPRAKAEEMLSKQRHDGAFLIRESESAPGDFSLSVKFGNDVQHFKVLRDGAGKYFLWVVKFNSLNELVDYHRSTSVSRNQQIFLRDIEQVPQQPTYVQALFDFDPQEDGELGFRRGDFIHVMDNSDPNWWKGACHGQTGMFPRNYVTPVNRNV
row,Variant,effect of a mutation on the interaction
1,P346A,increasing interaction
2,K347A,increasing interaction
3,R344A,increasing interaction
4,P345A,increasing interaction

# Variants of: B1
# Conditions: with grb2_human GRB2, P62993
# Remark: another data set of the same source
row,Variant,effect of a mutation on the interaction
1,K524A,decreasing interaction
2,L523A,decreasing interaction
3,N522A,decreasing interaction
4,R521A,decreasing interaction
